The values below come from USRE43497.

Test in all cases: cell-based or functional assay
The target in one assay is SV40-AD.
The next assay has as its target GAL4-AD (UniProt P04386).
The target in assay [1] is Jab1-AD (GAL4 activation domain fusion with human p38^Jab1 amino acids 20-335) (human) (UniProt Q92905).
Chain of Jab1-AD (GAL4 activation domain fusion with human p38^Jab1 amino acids 20-335) (human) (Q92905 20-334 limits assumed): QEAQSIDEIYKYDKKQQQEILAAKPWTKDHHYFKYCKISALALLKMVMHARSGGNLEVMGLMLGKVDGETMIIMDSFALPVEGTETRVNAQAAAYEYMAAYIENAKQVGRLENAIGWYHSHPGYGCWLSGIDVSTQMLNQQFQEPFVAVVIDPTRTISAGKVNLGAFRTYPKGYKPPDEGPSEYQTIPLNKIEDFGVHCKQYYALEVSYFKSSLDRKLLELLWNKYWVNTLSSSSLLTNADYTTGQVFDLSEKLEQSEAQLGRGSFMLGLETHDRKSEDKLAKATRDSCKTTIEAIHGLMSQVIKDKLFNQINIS

Chain of GAL4-AD (P04386 768-881 limits assumed): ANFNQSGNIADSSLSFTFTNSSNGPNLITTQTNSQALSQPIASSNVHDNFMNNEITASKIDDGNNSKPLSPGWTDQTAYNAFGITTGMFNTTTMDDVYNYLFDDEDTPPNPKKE

With p53-BD, in the assay with SV40-AD, the beta-galactosidase activity, liquid media assay (yeast two-hybrid) came out at 99 Miller units.
For GAL4-BD (from UniProt P04386 1-147), the beta-galactosidase activity, liquid media assay (yeast two-hybrid) with GAL4-AD worked out at 0.1 Miller units; in assay [1], 0.3 Miller units.
